Data from patent US9879306B2, “Luciferase biosensors for cAMP” (PROMEGA CORPORATION, priority 2008, dated 2018).

Tests used:
GPR41 [1] = test: Sodium proprionate CRC with biosensor variants in HEK293 cells stably expressing GPR41; format: cell-based; conditions: ratio of RLU of FSK treated well to untreated well
How it was run: (§1)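 GPR41-stable HEK293 cells were transiently transfected with a cAMP biosensor variant, then after 24 h equilibrated 2 h at room temperature with 5 mM EF-luc in CO2-independent medium with 10% FBS. Baseline luminescence was read, a sodium propionate concentration series added, and luminescence read after 30 min. EC50 and fold response were derived, with or without FSK.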

GPR41 [2] = biological target: T1, GPR41 (Homo sapiens, UniProt O14843); test: as above; format: cell-based; conditions: for Fold Response Na proprionate: without FSK, ratio of induced to uninduced signal; for Fold Response Na proprionate + FSK(1 μM): with FSK 1 μM
T1 sequence (O14843 1-346): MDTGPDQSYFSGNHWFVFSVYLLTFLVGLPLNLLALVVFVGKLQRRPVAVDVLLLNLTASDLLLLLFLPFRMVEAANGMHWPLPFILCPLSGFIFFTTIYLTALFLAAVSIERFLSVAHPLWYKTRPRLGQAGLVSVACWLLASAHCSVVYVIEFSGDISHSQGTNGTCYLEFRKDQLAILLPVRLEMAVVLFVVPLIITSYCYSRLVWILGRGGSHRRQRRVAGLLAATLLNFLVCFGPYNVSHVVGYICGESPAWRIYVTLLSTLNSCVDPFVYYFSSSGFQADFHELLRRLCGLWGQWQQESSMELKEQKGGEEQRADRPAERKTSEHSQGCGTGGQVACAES
How it was run: as §1

Molecule | Fold Signal Change (GPR41 [1]) [fold] | Fold Response Na proprionate (GPR41 [2]) [fold] | Fold Response Na proprionate + FSK(1 μM) (GPR41 [2]) [fold]
L9-IQY: L9 background with Luc2.0 F369I, K541Q and RIIβB F407Y; SEQ ID NO:78, 79 (protein) MPGAVGKVVPFIEAKVVDLDTGKTLGVNQRGELCVRGPMIMSGYVNNPEATNALIDKDGWLHSGDIAYWDEDEHFFIVDRLKSLIKYKGYQVAPAELESILLQHPNIFDAGVAGLPDDDAGELPAAVVVLEHGKTMTEKEIVDYVASQVTTAKKLRGGVVFVDEVPKGLTGKLDARKIREILIQAKKGSIAGCGDAGEGMYESFIESLPFLKSLEFSARLKVVDVIGTKVYNDGEQIIAQGDSADSFFIIESGEVKITMKRKGKSEVEENGAVEIARCSRGQYFGELALVTNKPRAASAHAIGTVKCLAMDVQAFERLLGPCMEIMKRNIATYEEQLVALYGTNMDIVAKNIKKGPAPFYPLEDGTAGEQLHKAMKRYALVPGTIAFTDAHIEVDITYAEYFEMSVRLAEAMKRYGLNTNHRIVVCSENSLQFFMPVLGALFIGVAVAPANDIYNERELLNSMGISQPTVVFVSKKGLQKILNVQKKLPIIQKIIIMDSKTDYQGFQSMYTFVTSHLPPGFNEYDFVPESFDRDKTIALIMNSSGSTGLPKGVALPHRTACVRFSHARDPIFGNQIIPDTAILSVVPFHHGFGMFTTLGYLICGFRVVLMYRFEEELFLRSLQDYKIQSALLVPTLFSFFAKSTLIDKYDLSNLHEIASGGAPLSKEVGEAVAKRFHLPGIRQGYGLTETTSAILITPEGV | 96.0 | 3.82 | 
7A1-Q: 7A1 background with Luc2.0 K541Q; SEQ ID NO:62, 63 (protein) MPGAVGKVVPFFEAKVVDLDTGKTLGVNQRGELCVRGPMIMSGYVNNPEATNALIDKDGWLHSGDIAYWDEDEHFFIVDRLKSLIKYKGYQVAPAELESILLQHPNIFDAGVAGLPDDDAGELPAAVVVLEHGKTMTEKEIVDYVASQVTTAKKLRGGVVFVDEVPKGLTGKLDARKIREILIQAKKGSNWDSGCSREGMYESFIESLPFLKSLEFSARLKVVDVIGTKVYNDGEQIIAQGDSADSFFIIESGEVKITMKRKGKSEVEENGAVEIARCSRGQYFGELALVTNKPRAASAHAIGTVKCLAMDVQAFERLLGPCMEIMKRNIATYEEQLVALFGTNMDIVAKNIKKGPAPFYPLEDGTAGEQLHKAMKRYALVPGTIAFTDAHIEVDITYAEYFEMSVRLAEAMKRYGLNTNHRIVVCSENSLQFFMPVLGALFIGVAVAPANDIYNERELLNSMGISQPTVVFVSKKGLQKILNVQKKLPIIQKIIIMDSKTDYQGFQSMYTFVTSHLPPGFNEYDFVPESFDRDKTIALIMNSSGSTGLPKGVALPHRTACVRFSHARDPIFGNQIIPDTAILSVVPFHHGFGMFTTLGYLICGFRVVLMYRFEEELFLRSLQDYKIQSALLVPTLFSFFAKSTLIDKYDLSNLHEIASGGAPLSKEVGEAVAKRFHLPGIRQGYGLTETTSAILITPEGV | 71.6 | 2.26 | 4.26
7A1-ILQ: 7A1 background with Luc2.0 F369I, F518L, K541Q; SEQ ID NO:68, 69 (protein) MPGAVGKVVPFIEAKVVDLDTGKTLGVNQRGELCVRGPMIMSGYVNNPEATNALIDKDGWLHSGDIAYWDEDEHFFIVDRLKSLIKYKGYQVAPAELESILLQHPNIFDAGVAGLPDDDAGELPAAVVVLEHGKTMTEKEIVDYVASQVTTAKKLRGGVVLVDEVPKGLTGKLDARKIREILIQAKKGSNWDSGCSREGMYESFIESLPFLKSLEFSARLKVVDVIGTKVYNDGEQIIAQGDSADSFFIIESGEVKITMKRKGKSEVEENGAVEIARCSRGQYFGELALVTNKPRAASAHAIGTVKCLAMDVQAFERLLGPCMEIMKRNIATYEEQLVALFGTNMDIVAKNIKKGPAPFYPLEDGTAGEQLHKAMKRYALVPGTIAFTDAHIEVDITYAEYFEMSVRLAEAMKRYGLNTNHRIVVCSENSLQFFMPVLGALFIGVAVAPANDIYNERELLNSMGISQPTVVFVSKKGLQKILNVQKKLPIIQKIIIMDSKTDYQGFQSMYTFVTSHLPPGFNEYDFVPESFDRDKTIALIMNSSGSTGLPKGVALPHRTACVRFSHARDPIFGNQIIPDTAILSVVPFHHGFGMFTTLGYLICGFRVVLMYRFEEELFLRSLQDYKIQSALLVPTLFSFFAKSTLIDKYDLSNLHEIASGGAPLSKEVGEAVAKRFHLPGIRQGYGLTETTSAILITPEGV | 181.8 | 4.09 | 5.68
7A1-IQY: 7A1 background with Luc2.0 F369I, K541Q and RIIβB F407Y; SEQ ID NO:29, 30 (protein) MPGAVGKVVPFIEAKVVDLDTGKTLGVNQRGELCVRGPMIMSGYVNNPEATNALIDKDGWLHSGDIAYWDEDEHFFIVDRLKSLIKYKGYQVAPAELESILLQHPNIFDAGVAGLPDDDAGELPAAVVVLEHGKTMTEKEIVDYVASQVTTAKKLRGGVVFVDEVPKGLTGKLDARKIREILIQAKKGSNWDSGCSREGMYESFIESLPFLKSLEFSARLKVVDVIGTKVYNDGEQIIAQGDSADSFFIIESGEVKITMKRKGKSEVEENGAVEIARCSRGQYFGELALVTNKPRAASAHAIGTVKCLAMDVQAFERLLGPCMEIMKRNIATYEEQLVALYGTNMDIVAKNIKKGPAPFYPLEDGTAGEQLHKAMKRYALVPGTIAFTDAHIEVDITYAEYFEMSVRLAEAMKRYGLNTNHRIVVCSENSLQFFMPVLGALFIGVAVAPANDIYNERELLNSMGISQPTVVFVSKKGLQKILNVQKKLPIIQKIIIMDSKTDYQGFQSMYTFVTSHLPPGFNEYDFVPESFDRDKTIALIMNSSGSTGLPKGVALPHRTACVRFSHARDPIFGNQIIPDTAILSVVPFHHGFGMFTTLGYLICGFRVVLMYRFEEELFLRSLQDYKIQSALLVPTLFSFFAKSTLIDKYDLSNLHEIASGGAPLSKEVGEAVAKRFHLPGIRQGYGLTETTSAILITPEGV | 128.0 | 2.42 | 
7A1-IL: 7A1 background with Luc2.0 F369I, F518L; SEQ ID NO:70, 71 (protein) MPGAVGKVVPFIEAKVVDLDTGKTLGVNQRGELCVRGPMIMSGYVNNPEATNALIDKDGWLHSGDIAYWDEDEHFFIVDRLKSLIKYKGYQVAPAELESILLQHPNIFDAGVAGLPDDDAGELPAAVVVLEHGKTMTEKEIVDYVASQVTTAKKLRGGVVLVDEVPKGLTGKLDARKIREILIKAKKGSNWDSGCSREGMYESFIESLPFLKSLEFSARLKVVDVIGTKVYNDGEQIIAQGDSADSFFIIESGEVKITMKRKGKSEVEENGAVEIARCSRGQYFGELALVTNKPRAASAHAIGTVKCLAMDVQAFERLLGPCMEIMKRNIATYEEQLVALFGTNMDIVAKNIKKGPAPFYPLEDGTAGEQLHKAMKRYALVPGTIAFTDAHIEVDITYAEYFEMSVRLAEAMKRYGLNTNHRIVVCSENSLQFFMPVLGALFIGVAVAPANDIYNERELLNSMGISQPTVVFVSKKGLQKILNVQKKLPIIQKIIIMDSKTDYQGFQSMYTFVTSHLPPGFNEYDFVPESFDRDKTIALIMNSSGSTGLPKGVALPHRTACVRFSHARDPIFGNQIIPDTAILSVVPFHHGFGMFTTLGYLICGFRVVLMYRFEEELFLRSLQDYKIQSALLVPTLFSFFAKSTLIDKYDLSNLHEIASGGAPLSKEVGEAVAKRFHLPGIRQGYGLTETTSAILITPEGV | 200.0 | 4.66 | 4.36
7A1-IQ: 7A1 background with Luc2.0 F369I, K541Q; SEQ ID NO:23, 24 (protein) MPGAVGKVVPFIEAKVVDLDTGKTLGVNQRGELCVRGPMIMSGYVNNPEATNALIDKDGWLHSGDIAYWDEDEHFFIVDRLKSLIKYKGYQVAPAELESILLQHPNIFDAGVAGLPDDDAGELPAAVVVLEHGKTMTEKEIVDYVASQVTTAKKLRGGVVFVDEVPKGLTGKLDARKIREILIQAKKGSNWDSGCSREGMYESFIESLPFLKSLEFSARLKVVDVIGTKVYNDGEQIIAQGDSADSFFIIESGEVKITMKRKGKSEVEENGAVEIARCSRGQYFGELALVTNKPRAASAHAIGTVKCLAMDVQAFERLLGPCMEIMKRNIATYEEQLVALFGTNMDIVAKNIKKGPAPFYPLEDGTAGEQLHKAMKRYALVPGTIAFTDAHIEVDITYAEYFEMSVRLAEAMKRYGLNTNHRIVVCSENSLQFFMPVLGALFIGVAVAPANDIYNERELLNSMGISQPTVVFVSKKGLQKILNVQKKLPIIQKIIIMDSKTDYQGFQSMYTFVTSHLPPGFNEYDFVPESFDRDKTIALIMNSSGSTGLPKGVALPHRTACVRFSHARDPIFGNQIIPDTAILSVVPFHHGFGMFTTLGYLICGFRVVLMYRFEEELFLRSLQDYKIQSALLVPTLFSFFAKSTLIDKYDLSNLHEIASGGAPLSKEVGEAVAKRFHLPGIRQGYGLTETTSAILITPEGV | 128.0 | 3.66 | 3.42
